The values that follow are results of earlier work, collected in PMC8027070.

Like-named read-outs stand apart in the source and are kept apart here.

Broadly, the Kd is a measure of binding affinity in units of concentration.

Data set [1] addresses VIP (Homo sapiens) (UniProt P01282).
Data set [2] has as its target PACAP (Homo sapiens) (UniProt P18509).
Data set [3] has as its target VIP (Homo sapiens) (UniProt P01282). The source holds these as a separate data set.
The target in data set [4] is PACAP (Homo sapiens) (UniProt P18509). This is another data set of the same source.
Data set [5] has as its target VIP (Homo sapiens) (UniProt P01282). This is another data set of the same source.
The target in data set [6] is PACAP (Homo sapiens) (UniProt P18509). This is another data set of the same source.

Sequence of UniProt P01282 (P01282 125-152): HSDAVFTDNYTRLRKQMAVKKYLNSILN
Sequence of UniProt P18509 (P18509 82-129): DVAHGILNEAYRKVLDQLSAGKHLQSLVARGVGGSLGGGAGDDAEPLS

With PAC1 receptor (from UniProt P41586), the Kd in data set [1] is over 500 nM; in data set [2], 0.5 nM.

With VPAC1 receptor (from UniProt P32241), the Kd in data set [3] and in data set [4] was 1 nM throughout.

VPAC2 receptor (from UniProt P41587): the Kd in data set [5] and in data set [6] was 1 nM throughout.
